Patent publication US20230054300A1 (PARIS SCIENCES ET LETTRES QUARTIER LATIN, published 2023)

Key:
[1] = target: CLIP-PHloop protein (10xHis-CLIP-tagged glycine receptor β loop) (CLIP tag covalently bound (thioether) to the benzylcytosine at an extremity of the DNA molecule); assay: single-molecule magnetic tweezers; SNAP-gephyrin and CLIP-PHloop attached to the DNA molecule; force cycling FLF=0.01 pN for 13 s / FHF=1.1 pN for 52 s; 19.2 °C; GB buffer [continued]
Source text: HF corresponds to the application of a high force (“High Force”); LF corresponds to the application of a low force (“Low Force”). The test molecules can be either associated (A for “Associated”) or dissociated (D for “Dissociated”).

[2] = target: T1, FKBP12 protein having the sequence of SEQ ID NO: 7, with 4-azido-L-phenylalanine at position 1, conjugated to … (Homo sapiens (Human), UniProt P62942 2-108, 4-azido-L-phenylalanine in place of methionine at position 1; the azide is click-coupled to the DBCO-dT at the 5' end of oligo-Tc (Oligo-Tc2, SEQ ID NO: 5), which is ligated to the double-stranded …); assay: magnetic tweezers, force cycling, FHF=1.4 pN, T=303 K, 500 nM rapamycin
T1 construct: In the assay it is present as the binary complex with rapamycin (500 nM)
T1 sequence (P62942 other isoform, or with tags, fused parts or gaps limits assumed): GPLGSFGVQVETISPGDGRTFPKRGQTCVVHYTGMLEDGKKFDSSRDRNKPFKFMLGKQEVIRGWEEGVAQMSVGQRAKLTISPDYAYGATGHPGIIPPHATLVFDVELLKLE
Source text: (§1) At each passage at FLF=0.05 pN for time TLF=13 s, the test molecules associate, then, after passage at FHF=1.4 pN, they separate after a time indicated as t_HF-A. The high force is applied for time THF=155 s. […] C) Temporal monitoring of the extension of the double-stranded DNA molecule when the force is cycled between high value and low value (TS: schematic diagram of the FHF/FLF cycles). At each passage at FLF=0.05 pN for time TLF=14 s the test molecules associate and then, after passage at FHF=6 pN, they separate after a time indicated as t_HF-A. The high force is applied for time THF=125 s. […] The curves are provided for several temperatures: OT=29.1° C.; […]T=25.4° C.; ⋄ T=21.7° C.; x T=19.2° C. […] F) Variation of XD, the distance separating the transition state from the complex during dissociation, as a function of temperature. […] A linear fit in agreement with the Arrhenius-Bell model, ln[kD⁰]=A−ED/kBT, makes it possible to determine ED, the activation energy of the dissociation reaction.
(§2) Example 10 was performed either at 25° C. or at 30° C. in DB reaction buffer (20 mM K-Hepes pH 7.8, 100 mM KCl, 5 mM MgCl₂, 2 mM DTT, 0.1% Tween-20, 0.1 mg/ml BSA). Measurements were also performed at 19.2° C., 21.7° C., 25.4° C. and 29.1° C. (see FIG. 15E).

[3] = target: T1, FKBP12 protein having the sequence of …; assay: derived as kA=kD/KD; magnetic tweezers, FCF=0.04 pN, 25 °C, 500 nM rapamycin; derived as kA=kD/KD
Procedure: as §2
(§3) Said fraction of time spent by the test molecules in associated form is determined according to (Σt_{CF-A})/tₜₒₜₐₗ, where tₜₒₜₐₗ is the total time during which the fluctuations are recorded and analyzed.

[4] = target: T1, FKBP12 protein having the sequence of …; assay: magnetic tweezers, spontaneous fluctuations at FCF=0.04 pN, 25 °C, 500 nM rapamycin, with 0-200 nM free FRB in solution; average over concentrations; 0-200 nM free FRB in solution; averaged over concentrations
Procedure: as §2, §3

[5] = target: T1, FKBP12 protein having the sequence of …; assay: magnetic tweezers, force cycling, FHF=6 pN, T=303 K, 500 nM rapamycin
Source text: as §1, §2

[6] = target: T1, FKBP12 protein having the sequence of …; assay: magnetic tweezers, spontaneous fluctuations at constant force FCF=0.04 pN, 25 °C, 500 nM rapamycin; average over several DNA molecules and inversion; no free FRB in solution; FCF=0.04 pN, 25 C
Procedure: as §2

[7] = target: T1, FKBP12 protein having the sequence of …; assay: magnetic tweezers, force cycling, FHF=1.4 pN, T=298 K, 500 nM rapamycin; kD=1/<τD> averaged over several molecules

Chain of CLIP-PHloop protein (10xHis-CLIP-tagged glycine receptor β loop) (CLIP tag covalently bound (thioether) to the benzylcytosine at an extremity of the DNA molecule) (chain, as listed by the source limits assumed): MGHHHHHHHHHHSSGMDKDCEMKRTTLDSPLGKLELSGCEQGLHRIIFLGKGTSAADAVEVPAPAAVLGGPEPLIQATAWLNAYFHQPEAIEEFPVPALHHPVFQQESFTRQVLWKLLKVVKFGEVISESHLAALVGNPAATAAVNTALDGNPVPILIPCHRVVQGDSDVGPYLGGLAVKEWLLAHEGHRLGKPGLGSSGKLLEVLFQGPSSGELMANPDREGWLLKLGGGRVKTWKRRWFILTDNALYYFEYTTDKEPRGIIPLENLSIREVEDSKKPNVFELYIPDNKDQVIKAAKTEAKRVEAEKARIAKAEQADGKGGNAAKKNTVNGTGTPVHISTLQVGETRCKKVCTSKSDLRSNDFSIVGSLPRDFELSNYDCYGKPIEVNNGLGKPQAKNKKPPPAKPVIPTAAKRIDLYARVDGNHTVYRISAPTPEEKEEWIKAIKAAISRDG

B1: SNAP-gephyrin rC4 (other)
chain: MRGSHHHHHHGSACELSSGLEVLFQGPHMASMDKDCEMKRTTLDSPLGKLELSGCEQGLHEIKLLGKGTSAADAVEVPAPAAVLGGPEPLMQATAWLNAYFHQPEAIEEFPVPALHHPVFQQESFTRQVLWKLLKVVKFGEVISYQQLAALAGNPAATAAVKTALSGNPVPILIPCHRVVSSSGAVGGYEGGLAVKEWLLAHEGHRLGKPGLGSSGGTMATEGMILTNHDHQIRVGVLTVSDSCFRNLAEDRSGINLKDLVQDPSLLGGTISAYKIVPDEIEEIKETLIDWCDEKELNLILTTGGTGFAPRDVTPEATKEVIEREAPGMALAMLMGSLNVTPLGMLSRPVCGIRGKTLIINLPGSKKGSQECFQFILPALPHAIDLLRDAIVKVKEVHDELEDLPSPPPPLSPPPTTSPHKQTEDKGVQCEEEEEEKKDSGVASTEDSSSSHITAAALAAKIPDSIISRGVQVLPRDTASLSTTPSESPRAQATSRLSTASCPTPKARLPSCSSTYSVSEVQSRCSSKENILRASHSAVDITKVARRHRMSPFPLTSMDKAFITVLEMTPVLGTEIINYRDGMGRVLAQDVYAKDNLPPFPASVKDGYAVRAADGPGDRFIIGESQAGEQPTQTVMPGQVMRVTTGAPIPCGADAVVQVEDTELIRESDDGTEELEVRILVQARPGQDIRPIGHDIKRGECVLAKGTHMGPSEIGLLATVGVTEVEVNKFPVVAVMSTGNELLNPEDDLLPGKIRDSNRSTLLATIQEHGYPTINLGIVGDNPDDLLNALNEGISRADVIITSGGVSMGEKDYLKQVLDIDLHAQIHFGRVFMKPGLPTTFATLDIDGVRKIIFALPGNPVSAVVTCNLFVVPALRKMQGILDPRPTIIKARLSCDVKLDPRPEYHRCILTWHHQEPLPWAQSTGNQMSSRLMSMRSANGLLMLPPKTEQYVELHKGEVVDVMVIGRL
modifications: SNAP tag covalently bound (thioether) to the benzylguanine at an extremity of the DNA molecule
notes: also called Gephyrin construct rC4
[1]
  binding result: binds

B2: FRB protein (FRB subunit of the mTOR protein complex) having the sequence of SEQ ID NO: 6, with 4-azido-L-phenylalanine at position 2,020, conjugated to an … (other)
chain: GPLGSFILWHEMWHEGLEEASRLYFGERNVKGMFEVLEPLHAMMERGPQTLKETSFNQAYGRDLMEAQEWCRKYMKSGNVKDLTQAWDLYYHVFRRISKQLPQL
modifications: 4-azido-L-phenylalanine in place of alanine at position 2,020; the azide is click-coupled to the DBCO-dT at the 5' end of oligo-Tc (Oligo-Tc1, SEQ ID NO: 4), which is ligated to the double-stranded DNA molecule
notes: Free FRB added in solution (0-200 nM) is described as identical to the test molecule
[2]
  koff: 0.0484 s⁻¹
[3]
  kon: 4.5e+06 M⁻¹ s⁻¹
[4]
  koff: 0.0327 s⁻¹
[5]
  koff: 0.0649 s⁻¹
[6]
  koff: 0.0341 s⁻¹
[7]
  koff: 0.0322 s⁻¹
